These sequences were tested on Escherichia coli TOP10 (assay: shrunken log2 fold change of peptide-encoding DNA abundance (4.5 h post-induction vs induction); higher = less antimicrobial activity (less host growth inhibition)). Conditions: time post-induction: 4.5 h; library: site-saturation at positions 5, 18, 19, 20.
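Further: peptides expressed intracellularly from a pBAD plasmid library in pooled LB shake-flask culture, induced with 0.3% L-arabinose, DNA abundance read by NGS, three biological replicates, DESeq2 with apeglm shrinkage.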

Row | Sequence | shrunken log2 fold change
1 | RRIRIRPPRLPRPRPRPATMPRP | -0.0977
2 | RRIRIRPPRLPRPRPRPAVGPRP | 0.455
3 | RRIRIRPPRLPRPRPRPAVKPRP | -0.0893
4 | RRIRIRPPRLPRPRPRPAVMPRP | -0.129
5 | RRIRIRPPRLPRPRPRPAWCPRP | -0.0802
6 | RRIRIRPPRLPRPRPRPAWVPRP | 0.0748
7 | RRIRIRPPRLPRPRPRPAWWPRP | 0.0406
8 | RRIRIRPPRLPRPRPRPCAQPRP | -0.485
9 | RRIRIRPPRLPRPRPRPCCNPRP | -0.0118
10 | RRIRIRPPRLPRPRPRPCCYPRP | -0.495
11 | RRIRIRPPRLPRPRPRPCGAPRP | -0.25
12 | RRIRIRPPRLPRPRPRPCGFPRP | -0.0835
13 | RRIRIRPPRLPRPRPRPCHIPRP | -0.149
14 | RRIRIRPPRLPRPRPRPCHWPRP | -0.0328
15 | RRIRIRPPRLPRPRPRPCIIPRP | -0.467
16 | RRIRIRPPRLPRPRPRPCLCPRP | 2.05
17 | RRIRIRPPRLPRPRPRPCLNPRP | -0.0496
18 | RRIRIRPPRLPRPRPRPCLRPRP | -1.04
19 | RRIRIRPPRLPRPRPRPCLSPRP | -0.0164
20 | RRIRIRPPRLPRPRPRPCLVPRP | -0.687
21 | RRIRIRPPRLPRPRPRPCMDPRP | -0.695
22 | RRIRIRPPRLPRPRPRPCMEPRP | -0.799
23 | RRIRIRPPRLPRPRPRPCNTPRP | -0.0252
24 | RRIRIRPPRLPRPRPRPCQMPRP | -0.111
25 | RRIRIRPPRLPRPRPRPCRNPRP | -0.604

Row | Sequence | shrunken log2 fold change
26 | RRIRIRPPRLPRPRPRPCSMPRP | -0.00947
27 | RRIRIRPPRLPRPRPRPCSNPRP | -0.11
28 | RRIRIRPPRLPRPRPRPCTVPRP | -0.337
29 | RRIRIRPPRLPRPRPRPCTWPRP | -0.227
30 | RRIRIRPPRLPRPRPRPCVDPRP | -0.0909
31 | RRIRIRPPRLPRPRPRPCVFPRP | -1.22
32 | RRIRIRPPRLPRPRPRPCVMPRP | -0.106
33 | RRIRIRPPRLPRPRPRPCWMPRP | -0.222
34 | RRIRIRPPRLPRPRPRPCWSPRP | 0.0832
35 | RRIRIRPPRLPRPRPRPDASPRP | -0.00609
36 | RRIRIRPPRLPRPRPRPDCFPRP | -0.211
37 | RRIRIRPPRLPRPRPRPDCMPRP | -0.106
38 | RRIRIRPPRLPRPRPRPDDQPRP | 0.0121
39 | RRIRIRPPRLPRPRPRPDDWPRP | -0.0592
40 | RRIRIRPPRLPRPRPRPDFDPRP | -0.137
41 | RRIRIRPPRLPRPRPRPDICPRP | -0.0265
42 | RRIRIRPPRLPRPRPRPDKSPRP | -0.0563
43 | RRIRIRPPRLPRPRPRPDLCPRP | -0.101
44 | RRIRIRPPRLPRPRPRPDLLPRP | -0.634
45 | RRIRIRPPRLPRPRPRPDLTPRP | -0.00701
46 | RRIRIRPPRLPRPRPRPDLYPRP | -0.408
47 | RRIRIRPPRLPRPRPRPDMDPRP | -0.122
48 | RRIRIRPPRLPRPRPRPDMRPRP | -0.0655
49 | RRIRIRPPRLPRPRPRPDNPPRP | -0.152
50 | RRIRIRPPRLPRPRPRPDPEPRP | -0.158

Row | Sequence | shrunken log2 fold change
51 | RRIRIRPPRLPRPRPRPDQLPRP | -0.172
52 | RRIRIRPPRLPRPRPRPDRVPRP | -0.0924
53 | RRIRIRPPRLPRPRPRPDSGPRP | 0.00524
54 | RRIRIRPPRLPRPRPRPDSMPRP | -0.00884
55 | RRIRIRPPRLPRPRPRPDSTPRP | 0.00478
56 | RRIRIRPPRLPRPRPRPDSVPRP | 0.0234
57 | RRIRIRPPRLPRPRPRPDTKPRP | -0.188
58 | RRIRIRPPRLPRPRPRPDTRPRP | -0.293
59 | RRIRIRPPRLPRPRPRPDWQPRP | -0.00422
60 | RRIRIRPPRLPRPRPRPDWWPRP | -0.00879
61 | RRIRIRPPRLPRPRPRPDYAPRP | -0.154
62 | RRIRIRPPRLPRPRPRPDYVPRP | 0.012
63 | RRIRIRPPRLPRPRPRPEAQPRP | 0.0863
64 | RRIRIRPPRLPRPRPRPEAYPRP | 0.00489
65 | RRIRIRPPRLPRPRPRPECKPRP | -0.259
66 | RRIRIRPPRLPRPRPRPECSPRP | -0.428
67 | RRIRIRPPRLPRPRPRPEEWPRP | -0.128
68 | RRIRIRPPRLPRPRPRPEFEPRP | -0.0399
69 | RRIRIRPPRLPRPRPRPEFQPRP | -0.129
70 | RRIRIRPPRLPRPRPRPEGPPRP | -0.0796
71 | RRIRIRPPRLPRPRPRPEKTPRP | -0.0512
72 | RRIRIRPPRLPRPRPRPELRPRP | 0.0361
73 | RRIRIRPPRLPRPRPRPEMTPRP | 0.104
74 | RRIRIRPPRLPRPRPRPEQFPRP | 0.00851
75 | RRIRIRPPRLPRPRPRPERNPRP | 0.146

Row | Sequence | shrunken log2 fold change
76 | RRIRIRPPRLPRPRPRPESRPRP | 0.0553
77 | RRIRIRPPRLPRPRPRPESVPRP | -0.00682
78 | RRIRIRPPRLPRPRPRPETTPRP | -0.0691
79 | RRIRIRPPRLPRPRPRPFCGPRP | -0.228
80 | RRIRIRPPRLPRPRPRPFDDPRP | 0.0183
81 | RRIRIRPPRLPRPRPRPFFDPRP | -0.417
82 | RRIRIRPPRLPRPRPRPFFEPRP | -0.267
83 | RRIRIRPPRLPRPRPRPFGIPRP | -0.972
84 | RRIRIRPPRLPRPRPRPFGVPRP | -0.0635
85 | RRIRIRPPRLPRPRPRPFHFPRP | -0.27
86 | RRIRIRPPRLPRPRPRPFKEPRP | -0.263
87 | RRIRIRPPRLPRPRPRPFKHPRP | -1.2
88 | RRIRIRPPRLPRPRPRPFMFPRP | -0.745
89 | RRIRIRPPRLPRPRPRPFNGPRP | -0.211
90 | RRIRIRPPRLPRPRPRPFNIPRP | -0.93
91 | RRIRIRPPRLPRPRPRPFNLPRP | -0.496
92 | RRIRIRPPRLPRPRPRPFQCPRP | 0.00367
93 | RRIRIRPPRLPRPRPRPFQKPRP | -0.0135
94 | RRIRIRPPRLPRPRPRPFQVPRP | 0.0102
95 | RRIRIRPPRLPRPRPRPFRWPRP | -0.00968
96 | RRIRIRPPRLPRPRPRPFSGPRP | -0.241
97 | RRIRIRPPRLPRPRPRPFSHPRP | -0.177
98 | RRIRIRPPRLPRPRPRPFTPPRP | -0.875
99 | RRIRIRPPRLPRPRPRPFVMPRP | -0.275
100 | RRIRIRPPRLPRPRPRPFWIPRP | -0.193

Row | Sequence | shrunken log2 fold change
101 | RRIRIRPPRLPRPRPRPFWMPRP | -0.192
102 | RRIRIRPPRLPRPRPRPFWYPRP | 0.00745
103 | RRIRIRPPRLPRPRPRPFYAPRP | -0.251
104 | RRIRIRPPRLPRPRPRPFYQPRP | 0.234
105 | RRIRIRPPRLPRPRPRPGAYPRP | -0.33
106 | RRIRIRPPRLPRPRPRPGCFPRP | -0.0641
107 | RRIRIRPPRLPRPRPRPGFLPRP | -0.328
108 | RRIRIRPPRLPRPRPRPGFYPRP | 0.054
109 | RRIRIRPPRLPRPRPRPGGKPRP | -0.31
110 | RRIRIRPPRLPRPRPRPGGTPRP | -0.439
111 | RRIRIRPPRLPRPRPRPGMAPRP | 0.006
112 | RRIRIRPPRLPRPRPRPGMQPRP | -0.282
113 | RRIRIRPPRLPRPRPRPGNYPRP | -0.261
114 | RRIRIRPPRLPRPRPRPGPLPRP | -0.00626
115 | RRIRIRPPRLPRPRPRPGPRPRP | 0.358
116 | RRIRIRPPRLPRPRPRPGRDPRP | 0.0442
117 | RRIRIRPPRLPRPRPRPGRKPRP | 0.0417
118 | RRIRIRPPRLPRPRPRPGRWPRP | 0.473
119 | RRIRIRPPRLPRPRPRPGTLPRP | 0.0164
120 | RRIRIRPPRLPRPRPRPGVFPRP | 0.292
121 | RRIRIRPPRLPRPRPRPGVTPRP | -0.0211
122 | RRIRIRPPRLPRPRPRPGWNPRP | -0.0913
123 | RRIRIRPPRLPRPRPRPGWWPRP | 0.405
124 | RRIRIRPPRLPRPRPRPHAWPRP | 0.0947
125 | RRIRIRPPRLPRPRPRPHCAPRP | -0.0649

Row | Sequence | shrunken log2 fold change
126 | RRIRIRPPRLPRPRPRPHCVPRP | -0.533
127 | RRIRIRPPRLPRPRPRPHDAPRP | -0.175
128 | RRIRIRPPRLPRPRPRPHDLPRP | -0.057
129 | RRIRIRPPRLPRPRPRPHEKPRP | -0.123
130 | RRIRIRPPRLPRPRPRPHELPRP | -0.156
131 | RRIRIRPPRLPRPRPRPHFNPRP | -0.966
132 | RRIRIRPPRLPRPRPRPHGHPRP | -0.216
133 | RRIRIRPPRLPRPRPRPHIVPRP | -0.0875
134 | RRIRIRPPRLPRPRPRPHKMPRP | -0.237
135 | RRIRIRPPRLPRPRPRPHMCPRP | -1.25
136 | RRIRIRPPRLPRPRPRPHPNPRP | -0.404
137 | RRIRIRPPRLPRPRPRPHQHPRP | -0.351
138 | RRIRIRPPRLPRPRPRPHRAPRP | 0.0775
139 | RRIRIRPPRLPRPRPRPHRCPRP | -0.0635
140 | RRIRIRPPRLPRPRPRPHTFPRP | -1.53
141 | RRIRIRPPRLPRPRPRPHTVPRP | -0.588
142 | RRIRIRPPRLPRPRPRPHVQPRP | -0.131
143 | RRIRIRPPRLPRPRPRPHWMPRP | -1.57
144 | RRIRIRPPRLPRPRPRPHWSPRP | -0.187
145 | RRIRIRPPRLPRPRPRPHYNPRP | -1.03
146 | RRIRIRPPRLPRPRPRPHYSPRP | -1.15
147 | RRIRIRPPRLPRPRPRPIAMPRP | -0.216
148 | RRIRIRPPRLPRPRPRPIASPRP | -0.567
149 | RRIRIRPPRLPRPRPRPICQPRP | -0.418
150 | RRIRIRPPRLPRPRPRPIDQPRP | -0.341
